# Data reported in patent US20240209070A1 (LUNDQUIST INSTITUTE FOR BIOMEDICAL INNOVATION AT HARBOR …, published 2024).
# Substitutions are numbered along the chain they refer to. Like-named read-outs stand apart in the source and are kept apart here.
# T1: recombinant CotH3 protein of Rhizopus delemar 99-880 (Flag-TEV-CotH3 made in S. cerevisiae) (Rhizopus delemar 99-880 (Rhizopus …, UniProt I1CFE1 18-579))
# T1 construct: also called CotH3 antigen; rCotH3p
# T1 sequence: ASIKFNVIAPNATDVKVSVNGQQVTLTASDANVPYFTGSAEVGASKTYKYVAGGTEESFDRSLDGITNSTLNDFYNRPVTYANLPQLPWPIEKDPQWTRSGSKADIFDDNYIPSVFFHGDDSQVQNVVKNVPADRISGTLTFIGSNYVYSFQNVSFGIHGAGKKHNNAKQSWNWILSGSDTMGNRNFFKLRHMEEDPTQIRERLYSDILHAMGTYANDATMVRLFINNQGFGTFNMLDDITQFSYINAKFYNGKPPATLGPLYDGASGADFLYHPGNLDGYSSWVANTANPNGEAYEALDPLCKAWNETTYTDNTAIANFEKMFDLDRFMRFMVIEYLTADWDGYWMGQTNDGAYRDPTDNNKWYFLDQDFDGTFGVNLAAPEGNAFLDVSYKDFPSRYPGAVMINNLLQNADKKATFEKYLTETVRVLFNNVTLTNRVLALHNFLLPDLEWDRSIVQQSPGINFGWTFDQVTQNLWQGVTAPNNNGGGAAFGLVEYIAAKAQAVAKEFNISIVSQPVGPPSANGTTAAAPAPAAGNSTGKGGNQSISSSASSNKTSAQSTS
# B1: mouse anti-CotH3 monoclonal antibody clone C2 (antibody, V domains shown)
# VH: DLQLQESGPSLVKPSQTLSLTCSVTGDSITSGYWNWIRKFPGNKLEHMGYIKYSGRTFYNPSLKSRVSITRDTSKNQYYLQLNSVTSEDTATYYCASRGYWGQGTTLTVSS
# VL: DVVMTQTPLSLSVTIGQPASISCKSSQSLLYSNGKTYLNWLQQRPGQAPKLLMFQVSKPGIPDRFSGSGSETDFTLKISRVEAEDLGVYYCLQGTYFPHTFGAGTKVEIK
# notes: also called 6E11A8 mAb; mAb
# B2: C2 Chimera 2 (C2 VH on human IgG1 constant region with AvantGen cloned variable kappa on human kappa constant region) (antibody, V domains shown)
# VH: B1 VH
# VL: DVVMTQTPLSLSVTIGQPASISCKSSQSLLYSNGKTYLNWLQQRPGQAPKLLMFQVSKPGIPDRFSGSGSETDFTLKISRVEAEDLGVYYCLQGTYFPHTFGAGTKVEIKR
# notes: also called AvantGen LC-chimera
# B3: humanized variant LC2:HC1 (antibody, V domains shown)
# VH: QVQLQESGPGLVKPSETLSLTCTVSGDSITSGYWSWIRQPPGKGLEWIGYIKYSGRTNYNPSLKSRVTISRDTSKNQFSLKLSSVTAADTAVYYCASRGYWGQGTLVTVSS
# VL: DIVMTQTPLSLSVTPGQPASISCKSSQSLLDSDGKTFLNWLLQKPGQSPQLLIYLVSKLDSGVPDRFSGSGSGTDFTLKISRVEAEDVGVYYCWQGTHFPHTFGQGTKVEIKR
# B4: humanized variant Grafted LC:HC1 (antibody, V domains shown)
# VH: B3 VH
# VL: DIVMTQTPLSLSVTPGQPASISCKSSQSLLDSDGKTFLYWYLQKPGQSPQLLIYLVSSRFSPDRFSGSGSGTDFTLKISRVEAEDVGVYYCWQGTHFPHTFGQGTKVEIKR
# B5: humanized anti-CotH3 antibody LC3:HC3 (antibody, human IgG1, kappa)
# heavy: not shown
# light: DIVMTQTPLSLSVTPGQPASISCKSSQSLLDSDGKTFLNWLLQKPGQSPQRLIYLVSKLDSGVPDRFSGSGSGTDFTLKISRVEAEDVGVYYCWQGTHFPHTFGQGTKVEIKRTVAAPSVFIFPPSDEQLKSGTASVVCLLNNFYPREAKVQWKVDNALQSGNSQESVTEQDSKDSTYSLSSTLTLSKADYEKHKVYACEVTHQGLSSPVTKSFNRGEC
# notes: also called VX01; L3:H3
# B6: humanized variant LC1:HC3 (antibody, V domains shown)
# VH: B3 VH with S35N, W47H, N58F
# VL: B3 VL with N39Y, L41Y
# B7: humanized variant LC1:HC1 (antibody, V domains shown)
# VH: B3 VH
# VL: B3 VL with N39Y, L41Y
# B8: humanized anti-CotH3 antibody LC2:HC3 (antibody, human IgG1, kappa, V domains shown)
# VH: B3 VH with S35N, W47H, N58F
# VL: B3 VL
# notes: also called L2:H3; IgG anti-CotH3-LC2HC3
# B9: humanized variant LC3:HC1 (antibody, V domains shown)
# VH: B3 VH
# VL: B3 VL with L51R
# B10: humanized variant LC1:HC2 (antibody, V domains shown)
# VH: B3 VH with W47H, N58F
# VL: B3 VL with N39Y, L41Y
# B11: humanized anti-CotH3 antibody LC3:HC2 (antibody, human IgG1, kappa, V domains shown)
# VH: B3 VH with W47H, N58F
# VL: B3 VL with L51R
# notes: also called L3:H2; IgG anti-CotH3-LC3HC2
# B12: humanized variant LC2:Grafted HC (antibody, V domains shown)
# VH: B3 VH with R71V
# VL: B3 VL
# B13: humanized variant LC3:Grafted HC (antibody, V domains shown)
# VH: B3 VH with R71V
# VL: B3 VL with L51R
# Key:
# [1] = target: T1, recombinant CotH3 protein of Rhizopus …; assay: method and antigen form not stated
# [2] = target: T1, recombinant CotH3 protein of Rhizopus …; assay: dose response of Fnorm [per mille] against ligand concentration [M], Kd model, On Time 20s, TargetConc 5nM, Unbound 829.3, Bound 803.3, amplitude 26.0, signal to noise 20.5; method and antigen not named in the filing's text
# [3] = target: T1, recombinant CotH3 protein of Rhizopus …
# [4] = target: T1, recombinant CotH3 protein of Rhizopus …; assay: not stated (conclusions; reported affinity)
# [5] = target: T1, recombinant CotH3 protein of Rhizopus …; assay: BLI (Gator), from the KD values of Table 5
# Experimental: (§1) The purified preparations were then used to assess the affinity of each clone for the CotH3 antigen by biolayer interferometry using Gator system (ProbeLife). Under the assumption that the CotH3 antigen provided by Vitalex behaves as a normal soluble monomeric protein, a Protein G coated sensor probe (ProbeLife, catalog #160006) was loaded with the bivalent antibody test clone at a concentration of 5 μg/ml in ProbeLife's kinetic buffer (PBS pH 7.4, 0.02% BSA, 0.002% Tween-20, 0.005% NaN₃). […] All reactions were performed at 25° C. The values are chosen when three or more concentrations yield the same kinetic values.
# [6] = target: T1, recombinant CotH3 protein of Rhizopus …; assay: BLI (Gator), antibody on Protein G sensor, CotH3 6.25-400 nM, 25 C
# Experimental: as §1
# [7] = target: T1, recombinant CotH3 protein of Rhizopus …; assay: BLI (Gator), antibody from culture medium on Protein G sensor
# Rhizomucor = target: T2, Rhizomucor (Rhizomucor (species not given)); assay: flow cytometry on fixed Rhizomucor spores, 20 ug/ml antibody; blank 'Hu 2nd Only' median 257.20, mean 272.52
# T2 construct: native, on paraformaldehyde-fixed spores; also called cell-surface CotH antigen on Rhizomucor spores
# Mucor circinelloides = target: T3, Mucor circinelloides (Mucor circinelloides); assay: flow cytometry on fixed Mucor circinelloides spores, 20 ug/ml antibody; blank 'Hu 2nd Only' median 990.21, mean 1062.19
# T3 construct: native, on paraformaldehyde-fixed spores; also called cell-surface CotH antigen on Mucor circinelloides spores
# Rhizopus delemar = target: T4, Rhizopus delemar (Rhizopus delemar); assay: flow cytometry on fixed Rhizopus delemar spores, 20 ug/ml antibody; blank 'Hu 2nd Only' median 565.83, mean 592.76
# T4 construct: native, on paraformaldehyde-fixed spores; also called cell-surface CotH antigen on Rhizopus delemar spores
# [8] = target: T5, Cunninghamella bertholletiae (Cunninghamella bertholletiae); assay: flow cytometry on fixed Cunninghamella bertholletiae spores, 20 ug/ml antibody; blank 'Hu 2nd Only' median 241.78, mean 250.81
# T5 construct: native, on paraformaldehyde-fixed spores; also called cell-surface CotH antigen on Cunninghamella bertholletiae spores
binder,measurement,setting,value
B1,Kd,[1],~40 nM
same,Kd,[2],40.4 nM
same,Kd,[3],58.9 nM
same,koff,[3],0.00141 s⁻¹
same,kon,[3],23900 M⁻¹ s⁻¹
same,Kd,[4],~50 nM
B2,fold improvement in affinity over the parental mouse mAb,[5],33 fold
same,Kd,[6],1.8 nM
same,koff,[6],0.00111 s⁻¹
same,kon,[6],627000 M⁻¹ s⁻¹
B3,binding result,[7],no binding (tested: 30 nM CotH3)
B4,binding result,[7],no binding (tested: 30 nM CotH3)
B5,Mean: FITC-A,Rhizomucor,19800
same,Median: FITC-A,Rhizomucor,19900
same,Mean: FITC-A,Mucor circinelloides,22500
same,Median: FITC-A,Mucor circinelloides,18800
same,Mean: FITC-A,Rhizopus delemar,18200
same,Median: FITC-A,Rhizopus delemar,17000
same,Mean: FITC-A,[8],19300
same,Median: FITC-A,[8],18900
B6,binding result,[7],no binding (tested: 30 nM CotH3)
B7,binding result,[7],no binding (tested: 30 nM CotH3)
B8,Mean: FITC-A,Rhizomucor,29000
same,Median: FITC-A,Rhizomucor,29000
same,Mean: FITC-A,Mucor circinelloides,40600
same,Median: FITC-A,Mucor circinelloides,36500
same,Mean: FITC-A,Rhizopus delemar,28900
same,Median: FITC-A,Rhizopus delemar,27700
same,Mean: FITC-A,[8],29800
same,Median: FITC-A,[8],29200
B9,binding result,[7],no binding (tested: 30 nM CotH3)
B10,binding result,[7],no binding (tested: 30 nM CotH3)
B11,Mean: FITC-A,Rhizomucor,35900
same,Median: FITC-A,Rhizomucor,35900
same,Mean: FITC-A,Mucor circinelloides,43200
same,Median: FITC-A,Mucor circinelloides,37100
same,Mean: FITC-A,Rhizopus delemar,21800
same,Median: FITC-A,Rhizopus delemar,20600
same,Mean: FITC-A,[8],35600
same,Median: FITC-A,[8],34900
B12,binding result,[7],no binding (tested: 30 nM CotH3)
B13,binding result,[7],no binding (tested: 30 nM CotH3)
